“And” between values parts separate entries of the source, which are not always exact repeats. Equal values may be shown once.
Tests used:
[1] = biological target: T1, NMR invisible oligomeric species of Aβ (1–40) (Homo sapiens, UniProt P05067); experiment: 15N-R2 and 1HN-R2 transverse relaxation; type: binding
[2] = biological target: T1, NMR invisible oligomeric species of Aβ (1–40); type: binding
[3] = 150 µM total; 50 mM HEPES, pH 6.8, 10°C
[4] = biological target: ^15N-labeled Aβ(1–40) (Homo sapiens, UniProt P05067); experiment: Intermolecular paramagnetic relaxation enhancement; type: binding
[5] = Dynamic light scattering / transmission EM of equilibrated samples; type: physicochemical; conditions: equilibrated 150 and 300 µM samples

T1 sequence (P05067 672-711 limits assumed): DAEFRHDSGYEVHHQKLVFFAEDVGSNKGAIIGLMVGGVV
Chain of ^15N-labeled Aβ(1–40) (P05067 672-711 limits assumed): as above

| Substance | konapp (apparent first order rate constant, monomer to oligomer) ([1]; 300 µM total, pH 6.8, 10°C) | 1HN-R1 of monomer ([1]; Aβ(1–40) monomer, 10°C) [s⁻¹] | timescale of monomer-oligomer dynamic equilibrium [2] [ms] | fraction of oligomers ([2]; 60 µM) | effect of off-resonance saturation pulse on amide signal intensity ([2]; 60 µM, until pulse approaches resonances of the protein) | effect of CW pulse far off-resonance on amide resonances ([2]; 300 µM, RF 180 and 350 Hz) | fraction of peptide within dark oligomeric state exchanging with free monomer ([2]; abstract, concentration not specified) | peptides within the oligomer undergoing exchange with free monomer, 1 in about N ([2]; from fex) | mobility of N-terminal 9 residues upon association with oligomer ([2]; from regional specificity of ΔR2) | monomer concentration at pseudo-equilibrium [3] [µM] | population of lower order, transient, self-associated states ([4]; if present, or exchange is slow on the PRE time scale (< ca. 1 ms)) | presence of aggregates by dynamic light scattering [5] | morphology by transmission EM ([5]; negatively stained, >3 weeks) | intermolecular PREs, in words ([4]; 100 µM U-[15N]-Aβ(1–40) + 170 µM spin-labeled F20C variant) |
| --- | --- | --- | --- | --- | --- | --- | --- | --- | --- | --- | --- | --- | --- | --- |
| Aβ(1–40): amyloid β (Aβ) peptide (1–40), uniformly 15N-labeled, prepared from NaOH treated stocks to remove fibril seeds | 3.1 s^−1 and ~ 3 s^−1 | 1 | 10 to 15 | negligible | no effect on the signal intensity of the amide resonances | uniformly attenuated | ~ 3% | about 30 | remain highly mobile | 105 | 1–2% | presence of large polydisperse aggregates was confirmed | elongated morphologically disordered non-fibrillar aggregates with possibly some small needle-like fibrils present |  |
| F20C: single-cysteine variant Aβ(1–40), F20C mutation in the center of the peptide, conjugated to a nitroxide spin-label or a diamagnetic analogue |  |  |  |  |  |  |  |  |  |  |  |  |  | essentially no intermolecular PREs were observed |

Source: paper PMC2915839 (Journal of the American Chemical Society, 2010)
